Laboratory results published in patent US20240150455A1 (SHANGHAI GENBASE BIOTECHNOLOGY, published 2024).

What was measured:
[1] = biological target: T1, human CLDN6 (Claudin 6) (human, UniProt P56747 1-220); assay: flow cytometry on Bewo tumor cells naturally expressing human CLDN6
T1 construct: whole, on cells; Over-expressed on CHOS cells (CHOS-hCLDN6) or naturally expressed on the tumor cells OV90, NEC8, NTERA2 and Bewo; also called hCLDN6; CHOS-hCLDN6
T1 sequence (looked up): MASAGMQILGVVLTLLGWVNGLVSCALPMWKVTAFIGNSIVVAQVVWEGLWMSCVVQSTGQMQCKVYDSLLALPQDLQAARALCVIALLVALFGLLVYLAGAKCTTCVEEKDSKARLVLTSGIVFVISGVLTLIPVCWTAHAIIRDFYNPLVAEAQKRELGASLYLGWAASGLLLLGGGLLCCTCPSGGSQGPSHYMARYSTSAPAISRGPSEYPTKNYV
Method: (§1) 500,000 CLDN6-naturally expressing tumor cells (0V90, ATCC; NEC8, JCRB; NTERA2, Nanjing Cobioer Biosciences Co., Ltd; Bewo, Nanjing Cobioer Biosciences Co., Ltd) were placed in FACS buffer for later use, in which round-bottom low-adsorption 96-well plates were used. Antibody samples were serially diluted with FACS buffer. The diluted antibody was added to the cell plates, and FACS buffer was added to the corresponding negative control wells, and incubation was performed at 4° C. for 1 hour. […] After staining, the supernatant was removed by centrifugation, washing was performed twice with FACS buffer, and the cells were resuspended by adding FACS buffer to each well, and then loaded on a machine for reading. A flow cytometer (BD Company, model CantoII) was used to measure and read the cells in the experimental plate. During the measurement, the position of cells was first delineated according to FCS and SSC, and then the fluorescence channel corresponding to the second antibody and SSC were selected to analyze the cells. GraphPad was used for data analysis, the logarithm of antibody concentration was used on the abscissa, and the average fluorescence intensity value was used on the ordinate. […]

[2] = biological target: T1, human CLDN6 (Claudin 6); assay: cell-based or functional assay
[3] = biological target: T1, human CLDN6 (Claudin 6); assay: flow cytometry on NEC8 tumor cells naturally expressing human CLDN6
Method: as §1

[4] = biological target: T1, human CLDN6 (Claudin 6); assay: flow cytometry on OV90 tumor cells naturally expressing human CLDN6
Method: as §1

[5] = biological target: T1, human CLDN6 (Claudin 6); assay: flow cytometry on NTERA2 tumor cells naturally expressing human CLDN6
Method: as §1

[6] = biological target: T1, human CLDN6 (Claudin 6); assay: flow cytometry on CHOS-hCLDN6 cells
Method: (§2) Flow cytometric evaluation of mouse antibody binding to CLDN3/4/6/9: 500,000 CLDN6 expressing cells (CHOS-hCLDN6, CHOS-CLDN3, CHOS-CLDN4, CHOS-CLDN9) were placed in FACS buffer (PBS+2% FBS)/well, added with the mouse antibody to be tested and incubated at 4° C. for 1 hour. The supernatant was removed by centrifugation, washing was performed twice with FACS buffer, secondary antibody (DyLight488 goat anti-mouse IgG, Abcam, Cat. No.: ab97015) was added and incubated at 4° C. for 0.5 hours. After staining, the supernatant was removed by centrifugation, washing was performed twice with FACS buffer, the cells were resuspended with FACS buffer, and then loaded on the machine for reading. A flow cytometer (BD company, model CantoII) was used to measure and read the experimental cells. During the measurement, the cell position was first delineated according to FCS and SSC, and then the fluorescence channel corresponding to the second antibody and SSC were selected to analyze the cells.

[7] = biological target: T2, human CLDN9 (Claudin 9) (human, UniProt O95484 1-217); assay: flow cytometry on CHOS-CLDN9 cells
T2 construct: whole, on cells; Over-expressed on CHOS cells by lentiviral infection; also called CHOS-CLDN9
T2 sequence (looked up): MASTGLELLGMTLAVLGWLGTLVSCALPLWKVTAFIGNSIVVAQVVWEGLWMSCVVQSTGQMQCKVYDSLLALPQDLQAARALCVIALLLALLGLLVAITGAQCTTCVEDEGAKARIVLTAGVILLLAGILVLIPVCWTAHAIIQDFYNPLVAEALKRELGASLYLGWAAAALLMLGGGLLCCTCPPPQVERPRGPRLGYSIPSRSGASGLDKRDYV
Method: as §2

[8] = biological target: T1, human CLDN6 (Claudin 6); assay: binding to CLDN6-expressing cells (FIG. 6: NEC8, Bewo)

EC50 [1] | ADCC EC50, Bewo target cells, Jurkat-NFAT-Luc-CD16 effector reporter cells [2] | ADCC EC50, NEC8 target cells, Jurkat-NFAT-Luc-CD16 effector reporter cells [2] | ADCC EC50, NTERA2 target cells, Jurkat-NFAT-Luc-CD16 effector reporter cells [2] | ADCC EC50, OV90 target cells, Jurkat-NFAT-Luc-CD16 effector reporter cells [2] | EC50 [3] | EC50 [4] | EC50 [5] | binding result [6] | fold change of the ability to bind against the unmutated antibody [8] | Binder | further results
1.06 µg/mL | 0.7 µg/mL | 0.15 µg/mL | 0.55 µg/mL | 0.55 µg/mL | 1.31 µg/mL | 2.85 µg/mL | 1.22 µg/mL |  |  | humanized antibody 7008-01 (antibody, human IgG1, kappa, V domains shown, Human IgG1 heavy chain constant region, human kappa light chain constant region) VH: QVQLQESGPGLVKPSETLSLTCTVSGYSITSGYYWNWIRQPPGKGLEWMGYISYSGSNNYNPSLKNRVTISRDTSKNQFSLKLSSVTAADTAVYYCARGGYYFDYWGQGTLVTVSS VL: DIVMTQSPDSLAVSLGERATINCKSSQSLLNTNNQKNYLAWYQQKPGQPPKLLIYFASTRESGVPDRFSGSGSGTDFTLTISSLQAEDVAVYFCQQHYNAPRTFGGGTKVEIKR | 
0.9 µg/mL | 0.21 µg/mL | 0.071 µg/mL | 0.4 µg/mL | 0.16 µg/mL | 0.91 µg/mL | 3.79 µg/mL | 1.02 µg/mL |  |  | humanized antibody 7008-03 (antibody, human IgG1, kappa, V domains shown, Human IgG1 heavy chain constant region, human kappa light chain constant region) VH: EVQLVESGGGLVQPGGSLRLSCAASGFTFSIYGMSWVRQAPGKGLEWVATISRDASYTYFPDSVKGRFTISRDNAKNSLYLQMNSLRAEDTAVYYCVRLGDNDRGYAMDYWGQGTLVTVSS VL: DVVMTQSPLSLPVTLGQPASISCRSSQSVVHVNANTYLEWYQQRPGQSPRLLIYKVSNRFPGVPDRFSGSGSGTDFTLKISRVEAEDVGVYYCFQGSHVPRTFGGGTKVEIKR | 
 |  |  |  |  |  |  |  | binds |  | anti-CLDN6 murine antibody 15H2 (antibody, V domains shown, Mouse hybridoma antibody, detected with anti-mouse IgG; the murine constant regions are not) VH: DVQLQESGPGLVKPSQSLSLTCSVTGYSITSGYYWNWIRQFPGNKLEWMGYISYDGSNNYNPSLKNRFSIIRDTSKNQFFLKFNSVTTEDTATYYCARGGYYFDYWGQGTTLTVSS VL: not shown | 

Continued, binder first:

Binder | EC50 [1] | ADCC EC50, Bewo target cells, Jurkat-NFAT-Luc-CD16 effector reporter cells [2] | ADCC EC50, NEC8 target cells, Jurkat-NFAT-Luc-CD16 effector reporter cells [2] | ADCC EC50, NTERA2 target cells, Jurkat-NFAT-Luc-CD16 effector reporter cells [2] | ADCC EC50, OV90 target cells, Jurkat-NFAT-Luc-CD16 effector reporter cells [2] | EC50 [3] | EC50 [4] | EC50 [5] | binding result [6] | fold change of the ability to bind against the unmutated antibody [8] | further results
anti-CLDN6 murine antibody 9H3 (antibody, V domains shown, Mouse hybridoma antibody, detected with anti-mouse IgG; the murine constant regions are not) VH: EVQLVESGGDLVKPGGSLKLSCAASGFTFSIYGMSWVRQSPDRRLEWVATISRDGSYTYFPDSVKGRFTISRDNAKNTLYLQMSSLKSEDTAMYYCVRLGDNDRGYAMDYWGQGTSVTVSS VL: DVLMTQTPLSLPVSLGDQASISCRSSQSVVHVNGNTYLEWYLQKPGQSPRLLIYKVSNRFPGVPDRFSGSGSGTDFTLRISRVEAEDLGVYYCFQGSHVPRTFGGGTNLEIK |  |  |  |  |  |  |  |  | binds |  | binding result [7]: binds
9H3 hotspot mutant, LCDR1 NG mutated to NA and HCDR2 DG mutated to DA (antibody, V domains shown, also called 9H3 antibody with a hotspot mutant) VH: EVQLVESGGDLVKPGGSLKLSCAASGFTFSIYGMSWVRQSPDRRLEWVATISRDASYTYFPDSVKGRFTISRDNAKNTLYLQMSSLKSEDTAMYYCVRLGDNDRGYAMDYWGQGTSVTVSS VL: DVLMTQTPLSLPVSLGDQASISCRSSQSVVHVNANTYLEWYLQKPGQSPRLLIYKVSNRFPGVPDRFSGSGSGTDFTLRISRVEAEDLGVYYCFQGSHVPRTFGGGTNLEIK |  |  |  |  |  |  |  |  |  | ≤ 3 times | 
9H3 hotspot mutant, LCDR1 NG mutated to SG and HCDR2 DG mutated to DA (antibody, V domains shown, also called 9H3 antibody with a hotspot mutant) VH: EVQLVESGGDLVKPGGSLKLSCAASGFTFSIYGMSWVRQSPDRRLEWVATISRDASYTYFPDSVKGRFTISRDNAKNTLYLQMSSLKSEDTAMYYCVRLGDNDRGYAMDYWGQGTSVTVSS VL: DVLMTQTPLSLPVSLGDQASISCRSSQSVVHVSGNTYLEWYLQKPGQSPRLLIYKVSNRFPGVPDRFSGSGSGTDFTLRISRVEAEDLGVYYCFQGSHVPRTFGGGTNLEIK |  |  |  |  |  |  |  |  |  | ≤ 3 times | 
